Data published in US7618621B2, “Mammalian multipotent neural stem cells and compositions, methods of preparation and methods of administration thereof” (The Board of Trustees of the University of Illinois, priority 2002, dated 2009).

Legend:
human NSCs = assay: Retinal differentiation of human NSCs in vitro (opsin immunocytochemistry); format: cell-based; settings: for differentiation of NSCs into opsin-positive cells: factor for 3 days before, or for 5 days during, spontaneous differentiation in serum-free condition, 50 ng/ml; for differentiation of NSCs into retinal cells (opsin staining): FIG. 7(II), serum-free differentiation, 20 ng/ml IGF-1, 100 ng/ml TGF-b3, 10 ng/ml CNTF
Description: Two kinds of differentiation studies were performed: treatment of human NSCs with factors (i) before and (ii) during spontaneous differentiation under a basal media condition. In the first example, NSCs were differentiated under a serum-free differentiation condition in the presence of TGF-b3 (R&D, 50 ng/ml (1 ng/ml to 1 ug/ml)) and VEGF (R&D, 50 ng/ml (1 ng/ml to 1 ug/ml)) for 5 days in Lab-Teck II chamber slides (Nalge Nunc). The second example elucidated whether pretreatment of NSCs is sufficient to produce retinal lineages in these cells. The NSCs were treated with these factors for 3 days, and then differentiated for 5 days under the serum-free differentiation condition in the absence of these factors in the Lab-Teck II chamber slides. As a control, human NSCs were differentiated for 5 days in a no-factor treatment under a serum-free differentiation condition. After differentiation, cells were examined by double-immunofluorescent-cytochemistry (Kim et al., 2002, Proc. Natl. Acad. Sci. U S A 99: 4020-5) with antibodies in a combination of goat anti-GFAP (1:100, Research Diagnostics) and mouse anti-B-tubulin (1:700, Sigma) or mouse anti-opsin (1:200, Chemicon). […] No opsin-positive cells were detected in the spontaneous differentiation without TGF-b3 (FIG. 7b), the treated cells were positive for bIII-tubulin and GFAP (FIG. 7a).

MeSCs = assay: Retinal cell differentiation of MeSCs with growth factor treatment; format: cell-based; settings: without BrdU pre-treatment
rat retina = assay: Transplantation of pretreated NSCs into the rat vitreous cavity (opsin immunocytochemistry, human opsin ISHH); format: in vivo; settings: FIG. 8(II); 8 days after transplantation to rat eye; NSCs exposed for four days to 20 ng/ml IGF-1, 100 ng/ml TGF-b3 or 10 ng/ml CNTF

| Molecule | differentiation of NSCs into opsin-positive cells (human NSCs) | retinal cell-differentiation of MeSCs (MeSCs) | differentiation of NSCs into retinal cells (opsin staining) (human NSCs) | differentiation of transplanted NSCs to opsin-expressing cells in vivo (rat retina) |
| --- | --- | --- | --- | --- |
| VEGF | no opsin-positive cells were detectable | not sufficient to confer retinal cell-differentiation |  |  |
| IGF-1: insulin-like growth factor-1 |  |  | can differentiate into retinal cells | differentiated to opsin-expressing cells in vivo |
| CNTF: ciliary neurotrophic factor (protein, UniProt P26441 1-200, looked up) Ciliary neurotrophic factor: MAFTEHSPLTPHRRDLCSRSIWLARKIRSDLTALTESYVKHQGLNKNINLDSADGMPVASTDQWSELTEAERLQENLQAYRTFHVLLARLLEDQQVHFTPTEGDFHQAIHTLLLQVAAFAYQIEELMILLEYKIPRNEADGMPINVGDGGLFEKKLWGLKVLQELSQWTVRSIHDLRFISSHQTGIPARGSHYIANNKKM |  |  | can differentiate into retinal cells | differentiated to opsin-expressing cells in vivo |
| TGF-b3: human recombinant transforming growth factor beta 3 (R&D) (protein, UniProt P10600 301-412, looked up) Transforming growth factor …: ALDTNYCFRNLEENCCVRPLYIDFRQDLGWKWVHEPKGYYANFCSGPCPYLRSADTTHSTVLGLYNTLNPEASASPCCVPQDLEPLTILYYVGRTPKVEQLSNMVVKSCKCS | differentiated into opsin-positive cells | not sufficient to confer retinal cell-differentiation | can differentiate into retinal cells | differentiated to opsin-expressing cells in vivo |
